Results from patent publication US12109252B2, “Systems, methods and products for minimizing tissue reactions and tissue injury at an infusion site” (Cell and Molecular Tissue Engineering, LLC, priority 2016, dated 2024).
Entries after “also recorded” stand apart in the source; their conditions may differ.

Columns and labels:
[1] = tested on: leukocyte proteases including neutrophil elastase, trypsin, and insulin-degrading enzyme; assay: Insulin degradation by leukocyte proteases (SDS-PAGE) +/- inhibitors; type: biochemical; conditions: in vitro
Procedure: (§1) To characterize the ability of purified proteases or leukocyte extracts to degrade FITC-insulin in vitro we analyzed the impact of cell culture supernatants and cell lysates on insulin degradation using 10-20% SDS-PAGE gels. This was performed +/−anti-protease cocktails to characterize proteases responsible for insulin degradation. The functional activity of individual leukocyte proteases was analyzed using protease PAGE gels +/−protease inhibitors. This study clarifies the role of leukocytes in insulin therapy. (FIG. 13a, 13b, 13c and FIG. 14).

Trypsin = assay: Insulin degradation by trypsin +/- anti-proteases (PAGE); type: biochemical
Procedure: as §1, with “This study clarifies the role of leukocytes in insulin therapy.” left out
(§2) In FIG. 53, I=insulin, T=Trypsin, E=Elastase, IDE-Insulin Degrading Enzyme, PMN=Triton X100 extract of human PMN, mwn=molecular weight marker.
(§3) In this example, we tested the ability of various anti-proteases to inhibit insulin degradation by leukocyte extracts and proteases.

[2] = tested on: Triton X100 extract of human PMN; assay: Insulin degradation by PMN extracts +/- inhibitors (PAGE); type: biochemical
Text: as §2, §3

Elastase = molecular target: T1, Elastase (Homo sapiens, UniProt P08246); assay: Insulin degradation by elastase +/- anti-proteases (PAGE); type: biochemical
T1 sequence (P08246 30-267): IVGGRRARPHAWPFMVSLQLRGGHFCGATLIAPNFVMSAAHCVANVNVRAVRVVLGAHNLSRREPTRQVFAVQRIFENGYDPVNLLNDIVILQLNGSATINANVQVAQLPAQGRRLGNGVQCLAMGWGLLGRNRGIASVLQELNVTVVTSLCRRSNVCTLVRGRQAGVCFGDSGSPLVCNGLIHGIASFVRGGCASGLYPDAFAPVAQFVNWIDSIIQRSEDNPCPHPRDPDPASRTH
Procedure: as §1, with “This study clarifies the role of leukocytes in insulin therapy.” left out
as §2, §3

[3] = tested on: human peripheral blood mononuclear cells (PMBC); assay: Alamar Blue cell viability of human PBMC; type: cell-based
Procedure: For these in vitro studies, generally either human or mouse leukocyte cells or cell lines were cultured in vitro in the presence or absence of insulin preservatives or fibrils at various concentrations. at selected times cell viability and or cell activation has (cytokine expression) was determined. The results of these studies are presented below the general work flow for these studies are located in FIG. 61. […] Insulin diluent contains the formulation components of commercial insulin solutions but without the insulin protein itself. For these studies we utilized the work flow described in FIG. 61. […] At physiologic concentrations, both insulin formulation and insulin fibrils are toxic for human cells in vitro. […] The Protocol was: Hu-PBMC+insulin (72 hr)=>Assay Interleukin 8 (IL-8). […] The Protocol was Hu-PBMC+insulin (7 days)=>Assay Interferon gamma. […] The in vivo activation of these cells would cause inflammation and tissue destruction resulting in loss of effective CSII function.

[4] = tested on: human peripheral blood mononuclear cells (PBMC); assay: In vitro morphology of human PBMC after exposure; type: cell-based
Procedure: FIG. 6. Toxicity of insulin and fibrils in vitro: Preliminary in vitro morphology of human peripheral blood mononuclear cells (PBMC) after exposure to control media, high (1.0 mg/mL), and low (0.1 mg/mL) concentrations of insulin or insulin fibrils (i.e. insulin degradation byproducts) FIG. 6). Healthy control cells [Left column] show a rounded morphology.

human PBMCs = assay: Pro-inflammatory cytokine expression by human PBMC in vitro; type: cell-based
Procedure: For these in vitro studies, generally either human or mouse leukocyte cells or cell lines were cultured in vitro in the presence or absence of insulin preservatives or fibrils at various concentrations. at selected times cell viability and or cell activation has (cytokine expression) was determined. The results of these studies are presented below the general work flow for these studies are located in FIG. 61.
FIG. 7. Our in vitro studies Insulin and excipients induced expression of pro-inflammatory cytokines in PBMC in vitro. […] Similar data has been obtained with human cell lines (THP-1) and mouse macrophages (MQ). This supports our belief that I/E can induce inflammation in vivo, and that chronic infusion of IFP can cause chronic inflammation and fibrosis.
For these studies we utilized the work flow described in FIG. 61. […] At physiologic concentrations, both insulin formulation and insulin fibrils are toxic for human cells in vitro. […] The Protocol was: Hu-PBMC+insulin (72 hr)=>Assay Interleukin 8 (IL-8). […] The Protocol was Hu-PBMC+insulin (7 days)=>Assay Interferon gamma. […] The in vivo activation of these cells would cause inflammation and tissue destruction resulting in loss of effective CSII function.

human neutrophils = assay: Survival of human PMNs in serial dilutions; type: cell-based; conditions: 3 days, 1:48 dilution
Text: As the concentration increased, the number of cells surviving decreased for both insulin and insulin diluent.

[5] = molecular target: Insulin degrading enzyme (IDE) (Homo sapiens, UniProt P14735); assay: Insulin degradation by insulin degrading enzyme +/- anti-proteases (PAGE); type: biochemical
Procedure: as §1, with “This study clarifies the role of leukocytes in insulin therapy.” left out
as §2, §3

mouse mast cells = assay: Mast cell morphology/toxicity in vitro; type: cell-based; conditions: physiologic concentrations
Text: FIGS. 46-47 show the impact of insulin on mast cell morphology. At physiologic concentrations, both insulin formulations fibrils (not shown) are toxic to mouse mast cells in vitro.

human mast cells = assay: Mast cell viability (alamar Assay); type: cell-based
Text: (§4) FIGS. 48-49 show the impact of insulin on mast cell viability and degranulation. Mast cells (MC) are key skin “sentinel” cells and are generally the first tissue cell population activated by tissue trauma triggering acute inflammatory or allergic reactions and serve a central role in chronic inflammation and wound healing. Recent results from our laboratory indicate that skin mast cells affect glucose sensor induced tissue reactions and CGM function (13).

HMC-1 human mast cells = assay: Mast cell degranulation/activation; type: cell-based; conditions: in vitro
Text: as §4

infusion site tissue = assay: Tissue toxicity of infusion (open loop CSII mouse model); conditions: open loop delivery system
Text: Combined CSII and CGM mouse model (A B, C). Non-obese diabetic (NOD) mouse implanted with Abbott Navigator glucose sensor (GS) and a short polymer infusion set for CSII. The set and sensor were placed sufficiently far apart to avoid interference. Open Loop CGM and CSII insulin infusion system cage and assembly, that allows animal ambulation and mobility during simultaneous continuous glucose sensing and insulin infusion.
Tissue Toxicity of Insulin in vivo: Infusion: The sectioned polymer catheter wall is visible and marked with a black asterisk (*) in all tissues. […] Infusion was accomplished using the open loop delivery system described in FIG. 5.

air pouch = assay: Leukocyte influx into murine air pouch model (lavage cell count); conditions: injection or infusion into air pouch
Procedure: For this model, sterile air was injected subcutaneously into mouse skin creating a sustained compartment (pouch) for injection of test agents (FIG. 2). At various times post-air/post-agent injection, the “air pouch” can be lavaged, and the cell and fluid content removed and characterized using standard technology (FIG. 2). After lavage, tissue reactions in the air pouch walls can also be determined using standard histopathology/immunohistochemistry (FIG. 2).
We adapted this model for the evaluation of tissue responses to infusion of insulin, excipients, factors, drugs and control solutions (e.g. saline). […] Initially, CD-1 mice received air injections (3 mL) into the dorsal site of the low back to induce the air pouch in each animal. On the following day individual mice received infusions of either saline or insulin diluent. […] Exudate was then centrifuged and a TC10 automated cell counter determined the total viable leukocyte cells. The potential inflammatory effect of insulin diluent was evaluated through the analysis on the mouse leukocyte count and exudate concentrations in the inflamed air pouch cavity.
Air was injected subcutaneously into the mouse skin creating a sustained compartment (pouch) for injection of diluent or saline (control). […] The resulting fluid was characterized for cell number (auto-hemo-cytometer), and cell type using fluorescence activated Cell sorting (FACS).

AAT: alpha-1-antitrypsin, natural protease inhibitor
reduction of activity of insulin-degrading leukocyte proteases [1]: reduced | blocking of insulin degradation by trypsin (Trypsin): blocked | inhibition of insulin degradation by PMN extracts [2]: completely inhibits; also recorded: blocked

FITC-insulin: fluorescent insulin (FITC-insulin; Sigma, St. Louis, MO)
degradation of insulin by elastase (Elastase): degraded

aprotinin
reduction of activity of insulin-degrading leukocyte proteases [1]: reduced | blocking of insulin degradation by elastase (Elastase): blocked | blocking of insulin degradation by trypsin (Trypsin): blocked | inhibition of insulin degradation by PMN extracts [2]: blocked

insulin: commercial insulin formulation: complete insulin (insulin plus preservatives)
cell viability (Alamar Blue assay) ([3]; 3 days of exposure to increasing concentrations): decreasing cell viability | toxicity for human cells in vitro ([3]; physiologic concentrations): toxic | PBMC morphology ([4]; high (1.0 mg/mL) concentration): tight contracted morphology indicative of cell death/dying | PBMC morphology ([4]; low (0.1 mg/mL) concentration): spread, expanded morphology indicative of cell injury/activation | pro-inflammatory activation of Hu-PBMC (human PBMCs; IL-8 72 hr, Interferon gamma 7 days): cause pro-inflammatory activation | expression of pro-inflammatory cytokines including IL-6, IL-8 and TNFa (human PBMCs; PBMC in vitro): induce expression of pro-inflammatory cytokines | number of PMN's surviving vs buffer alone (human neutrophils): significantly fewer cells surviving | degradation of insulin by elastase (Elastase): cleaves insulin at many sites | degradation of insulin by insulin degrading enzyme [5]: cleaves insulin into several smaller peptides | toxicity to mouse mast cells (mouse mast cells): toxic | mast cell death (alamar Assay) (human mast cells; increasing concentration): increasing cell death | toxicity to human mast cells (human mast cells; physiologic concentrations): toxic | mast cell degranulation / activation (HMC-1 human mast cells): activate MCs | mast cell degranulation / activation (HMC-1 human mast cells; listed as insulin formulations): cause mast cell degrandulation | tissue reaction at infusion site surrounding catheter (infusion site tissue): extensive cell damage, inflammation and cellular infiltrate | inflammation / tissue reactions in air pouch vs saline (air pouch): cause tissue reactions
